B1: sp¦P08559¦ODPA_HUMAN (protein, UniProt P08559 30-390, looked up)
Pyruvate dehydrogenase E1 …: FANDATFEIKKCDLHRLEEGPPVTTVLTREDGLKYYRMMQTVRRMELKADQLYKQKIIRGFCHLCDGQEACCVGLEAGINPTDHLITAYRAHGFTFTRGLSVREILAELTGRKGGCAKGKGGSMHMYAKNFYGGNGIVGAQVPLGAGIALACKYNGKDEVCLTLYGDGAANQGQIFEAYNMAALWKLPCIFICENNRYGMGTSVERAAASTDYYKRGDFIPGLRVDGMDILCVREATRFAAAYCRSGKGPILMELQTYRYHGHSMSDPGVSYRTREEIQEVRSKSDPIMLLKDRMVNSNLASVEELKEIDVEVRKEIEDAAQFATADPEPPLEELGYHIYSSDPPFEVRGANQWIKFKSVS
B2: sp¦Q9UJZ1¦STML2_HUMAN (protein, UniProt Q9UJZ1 29-356, looked up)
Stomatin-like protein 2, …: SSGLPRNTVVLFVPQQEAWVVERMGRFHRILEPGLNILIPVLDRIRYVQSLKEIVINVPEQSAVTLDNVTLQIDGVLYLRIMDPYKASYGVEDPEYAVTQLAQTTMRSELGKLSLDKVFRERESLNASIVDAINQAADCWGIRCLRYEIKDIHVPPRVKESMQMQVEAERRKRATVLESEGTRESAINVAEGKKQAQILASEAEKAEQINQAAGEASAVLAKAKAKAEAIRILAAALTQHNGDAAASLTVAEQYVSAFSKLAKDSNTILLPSNPGDVTSMVAQAMGVYGALTKAPVPGTPDSLSSGSSRDVQGTDASLDEELDRVKMS
B3: sp¦Q15007¦FL2D_HUMAN (protein, UniProt Q15007 1-396, looked up)
Pre-mRNA-splicing regulator …: MTNEEPLPKKVRLSETDFKVMARDELILRWKQYEAYVQALEGKYTDLNSNDVTGLRESEEKLKQQQQESARRENILVMRLATKEQEMQECTTQIQYLKQVQQPSVAQLRSTMVDPAINLFFLKMKGELEQTKDKLEQAQNELSAWKFTPDSQTGKKLMAKCRMLIQENQELGRQLSQGRIAQLEAELALQKKYSEELKSSQDELNDFIIQLDEEVEGMQSTILVLQQQLKETRQQLAQYQQQQSQASAPSTSRTTASEPVEQSEATSKDCSRLTNGPSNGSSSRQRTSGSGFHREGNTTEDDFPSSPGNGNKSSNSSEERTGRGGSGYVNQLSAGYESVDSPTGSENSLTHQSNDTDSSHDPQEEKAVSGKGNRTVGSRHVQNGLDSSVNVQGSVL
B4: sp¦P49588¦SYAC_HUMAN (protein, UniProt P49588 1-968, looked up)
Alanine--tRNA ligase, …: MDSTLTASEIRQRFIDFFKRNEHTYVHSSATIPLDDPTLLFANAGMNQFKPIFLNTIDPSHPMAKLSRAANTQKCIRAGGKHNDLDDVGKDVYHHTFFEMLGSWSFGDYFKELACKMALELLTQEFGIPIERLYVTYFGGDEAAGLEADLECKQIWQNLGLDDTKILPGNMKDNFWEMGDTGPCGPCSEIHYDRIGGRDAAHLVNQDDPNVLEIWNLVFIQYNREADGILKPLPKKSIDTGMGLERLVSVLQNKMSNYDTDLFVPYFEAIQKGTGARPYTGKVGAEDADGIDMAYRVLADHARTITVALADGGRPDNTGRGYVLRRILRRAVRYAHEKLNASRGFFATLVDVVVQSLGDAFPELKKDPDMVKDIINEEEVQFLKTLSRGRRILDRKIQSLGDSKTIPGDTAWLLYDTYGFPVDLTGLIAEEKGLVVDMDGFEEERKLAQLKSQGKGAGGEDLIMLDIYAIEELRARGLEVTDDSPKYNYHLDSSGSYVFENTVATVMALRREKMFVEEVSTGQECGVVLDKTCFYAEQGGQIYDEGYLVKVDDSSEDKTEFTVKNAQVRGGYVLHIGTIYGDLKVGDQVWLFIDEPRRRPIMSNHTATHILNFALRSVLGEADQKGSLVAPDRLRFDFTAKGAMSTQQIKKAEEIANEMIEAAKAVYTQDCPLAAAKAIQGLRAVFDETYPDPVRVVSIGVPVSELLDDPSGPAGSLTSVEFCGGTHLRNSSHAGAFVIVTEEAIAKGIRRIVAVTGAEAQKALRKAESLKKCLSVMEAKVKAQTAPNKDVQREIADLGEALATAVIPQWQKDELRETLKSLKKVMDDLDRASKADVQKRVLEKTKQFIDSNPNQPLVILEMESGASAKALNEALKLFKMHSPQTSAMLFTVDNEAGKITCLCQVPQNAANRGLKASEWVQQVSGLMDGKGGGKDVSAQATGKNVGCLQEALQLATSFAQLRLGDVKN
B5: sp¦O00567¦NOP56_HUMAN (protein, UniProt O00567 1-594, looked up)
Nucleolar protein 56: MVLLHVLFEHAVGYALLALKEVEEISLLQPQVEESVLNLGKFHSIVRLVAFCPFASSQVALENANAVSEGVVHEDLRLLLETHLPSKKKKVLLGVGDPKIGAAIQEELGYNCQTGGVIAEILRGVRLHFHNLVKGLTDLSACKAQLGLGHSYSRAKVKFNVNRVDNMIIQSISLLDQLDKDINTFSMRVREWYGYHFPELVKIINDNATYCRLAQFIGNRRELNEDKLEKLEELTMDGAKAKAILDASRSSMGMDISAIDLINIESFSSRVVSLSEYRQSLHTYLRSKMSQVAPSLSALIGEAVGARLIAHAGSLTNLAKYPASTVQILGAEKALFRALKTRGNTPKYGLIFHSTFIGRAAAKNKGRISRYLANKCSIASRIDCFSEVPTSVFGEKLREQVEERLSFYETGEIPRKNLDVMKEAMVQAEEAAAEITRKLEKQEKKRLKKEKKRLAALALASSENSSSTPEECEEMSEKPKKKKKQKPQEVPQENGMEDPSISFSKPKKKKSFSKEELMSSDLEETAGSTSIPKRKKSTPKEETVNDPEEAGHRSGSKKKRKFSKEEPVSSGPEEAVGKSSSKKKKKFHKASQED
B6: sp¦P27824¦CALX_HUMAN (protein, UniProt P27824 21-592, looked up)
Calnexin: HDGHDDDVIDIEDDLDDVIEEVEDSKPDTTAPPSSPKVTYKAPVPTGEVYFADSFDRGTLSGWILSKAKKDDTDDEIAKYDGKWEVEEMKESKLPGDKGLVLMSRAKHHAISAKLNKPFLFDTKPLIVQYEVNFQNGIECGGAYVKLLSKTPELNLDQFHDKTPYTIMFGPDKCGEDYKLHFIFRHKNPKTGIYEEKHAKRPDADLKTYFTDKKTHLYTLILNPDNSFEILVDQSVVNSGNLLNDMTPPVNPSREIEDPEDRKPEDWDERPKIPDPEAVKPDDWDEDAPAKIPDEEATKPEGWLDDEPEYVPDPDAEKPEDWDEDMDGEWEAPQIANPRCESAPGCGVWQRPVIDNPNYKGKWKPPMIDNPSYQGIWKPRKIPNPDFFEDLEPFRMTPFSAIGLELWSMTSDIFFDNFIICADRRIVDDWANDGWGLKKAADGAAEPGVVGQMIEAAEERPWLWVVYILTVALPVFLVILFCCSGKKQTSGMEYKKTDAPQPDVKEEEEEKEEEKDKGDEEEEGEEKLEEKQKSDAEEDGGTVSQEEEDRKPKAEEDEILNRSPRNRKPRRE
B7: sp¦P84103¦SRSF3_HUMAN (protein, UniProt P84103 1-164, looked up)
Serine/arginine-rich splicing …: MHRDSCPLDCKVYVGNLGNNGNKTELERAFGYYGPLRSVWVARNPPGFAFVEFEDPRDAADAVRELDGRTLCGCRVRVELSNGEKRSRNRGPPPSWGRRPRDDYRRRSPPPRRRSPRRRSFSRSRSRSLSRDRRRERSLSRERNHKPSRSFSRSRSRSRSNERK
B8: sp¦Q09161¦NCBP1_HUMAN (protein, UniProt Q09161 1-790, looked up)
Nuclear cap-binding protein …: MSRRRHSDENDGGQPHKRRKTSDANETEDHLESLICKVGEKSACSLESNLEGLAGVLEADLPNYKSKILRLLCTVARLLPEKLTIYTTLVGLLNARNYNFGGEFVEAMIRQLKESLKANNYNEAVYLVRFLSDLVNCHVIAAPSMVAMFENFVSVTQEEDVPQVRRDWYVYAFLSSLPWVGKELYEKKDAEMDRIFANTESYLKRRQKTHVPMLQVWTADKPHPQEEYLDCLWAQIQKLKKDRWQERHILRPYLAFDSILCEALQHNLPPFTPPPHTEDSVYPMPRVIFRMFDYTDDPEGPVMPGSHSVERFVIEENLHCIIKSHWKERKTCAAQLVSYPGKNKIPLNYHIVEVIFAELFQLPAPPHIDVMYTTLLIELCKLQPGSLPQVLAQATEMLYMRLDTMNTTCVDRFINWFSHHLSNFQFRWSWEDWSDCLSQDPESPKPKFVREVLEKCMRLSYHQRILDIVPPTFSALCPANPTCIYKYGDESSNSLPGHSVALCLAVAFKSKATNDEIFSILKDVPNPNQDDDDDEGFSFNPLKIEVFVQTLLHLAAKSFSHSFSALAKFHEVFKTLAESDEGKLHVLRVMFEVWRNHPQMIAVLVDKMIRTQIVDCAAVANWIFSSELSRDFTRLFVWEILHSTIRKMNKHVLKIQKELEEAKEKLARQHKRRSDDDDRSSDRKDGVLEEQIERLQEKVESAQSEQKNLFLVIFQRFIMILTEHLVRCETDGTSVLTPWYKNCIERLQQIFLQHHQIIQQYMVTLENLLFTAELDPHILAVFQQFCALQA

One experiment relates to human HL60 cells. Briefly: SWATH-MS proteomics, differential protein representation, akirin2 KO vs WT HL60 cells. In kind it is cell-based. To be noted: KO vs WT; akirin2 KO vs WT HL60 cells; sheet "Under-represented in KO". Put shortly:
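Three biological replicates per genotype; 150 µg protein FASP/trypsin digested; IDA library (3 µg digest); SWATH variable windows, 5 µg/sample, 3.6 s cycle; gradient 5–30% B 120 min then 30–60% B 15 min; 1% global FDR; TAS normalization.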
Consider B1, for which the “Fold Change” value is 0.6031 and the “Log (Fold Change)” value was -0.2196.

As for B2, the “Fold Change” value was 0.6025 and the “Log (Fold Change)” value is -0.22.

Take B3: the “Fold Change” value worked out at 0.593 and the “Log (Fold Change)” value was -0.227.

On to B4, for which the “Fold Change” value was 0.5997 and the “Log (Fold Change)” value was -0.2221.

Take B5: the “Fold Change” value is recorded as 0.6041 and the “Log (Fold Change)” value is listed as -0.2189.

As to B6, the “Fold Change” value turned out to be 0.6087 and the “Log (Fold Change)” value is reported as -0.2156.

Staying with this experiment, now noted: akirin2 KO vs WT HL60 cells; sheet "Under-represented in KO".
On to B7, for which the “Fold Change” value was 0.2712 and the “Log (Fold Change)” value is reported as -0.5667.

Consider B8, for which the “Fold Change” value is 0.2701 and the “Log (Fold Change)” value is listed as -0.5684.
